Patent US20150203577A1 (Chugai, published 2015)
Several values for one entry are separate records, joined by “and”; a condition that tells them apart may be missing. Equal entries are not always repeated.

T1: mouse FcγRII (mouse, UniProt P08101 30-210)
T1 construct: Extracellular domain with C-terminal His tag, made in FreeStyle 293 cells; also called mFcγRII; mFcgRII
T1 sequence: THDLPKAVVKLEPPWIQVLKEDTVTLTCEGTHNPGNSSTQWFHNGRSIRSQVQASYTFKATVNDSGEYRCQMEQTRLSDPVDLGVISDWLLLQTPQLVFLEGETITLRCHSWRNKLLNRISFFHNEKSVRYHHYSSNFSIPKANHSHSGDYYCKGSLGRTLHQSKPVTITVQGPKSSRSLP

T2: mouse FcγRIII (mouse, UniProt P08508 31-215)
T2 construct: Extracellular domain with C-terminal His tag, made in FreeStyle 293 cells; also called mFcγRIII; mFcgRIII
T2 chain: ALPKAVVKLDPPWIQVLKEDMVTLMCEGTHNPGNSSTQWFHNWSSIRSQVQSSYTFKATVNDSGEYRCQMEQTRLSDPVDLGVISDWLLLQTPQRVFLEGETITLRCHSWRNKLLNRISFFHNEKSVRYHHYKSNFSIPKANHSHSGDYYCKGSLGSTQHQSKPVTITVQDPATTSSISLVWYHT

B1: H237-MB687/MRAL-k0 (antibody, mouse IgG1, kappa)
heavy: QVQLQESGPGLVKPSETLSLTCAVSGHSISHDHAWSWVRQPPGEGLEWIGFISYSGITNYNPSLQGRVTISRDNSKNTLYLQMNSLRAEDTAVYYCARSLARTTAMDYWGEGTLVTVSSAKTTPPSVYPLAPGSAAQTNSMVTLGCLVKGYFPEPVTVTWNSGSLSSGVHTFPAVLQSDLYTLSSSVTVPSSTWPSETVTCNVAHPASSTKVDKKIVPRDCGCKPCICEPPEVELVFIFPPKPKDVLTITLTPKVTCVVVDISKDDPEVQFSWFVDDVEVHTAQTQPREEQFNSTFRSVSELPIMHQDWLNGKEFKCRVNSAAFPAPIEKTISKTKGRPKAPQVYTIPPPKEQMAKDKVSLTCMITDFFPEDITVEWQWNGQPAENYKNTQPIMDTDGSYFVYSKLNVQKSNWEAGNTFTCSVLHEGLHNHHTEKSLSHSPGK
light: not shown
notes: copies: 2 + 2
B2: H237-MB618/MRAL-k0 (antibody, mouse IgG1, kappa)
heavy: QVQLQESGPGLVKPSETLSLTCAVSGHSISHDHAWSWVRQPPGEGLEWIGFISYSGITNYNPSLQGRVTISRDNSKNTLYLQMNSLRAEDTAVYYCARSLARTTAMDYWGEGTLVTVSSAKTTPPSVYPLAPGSAAQTNSMVTLGCLVKGYFPEPVTVTWNSGSLSSGVHTFPAVLQSDLYTLSSSVTVPSSTWPSETVTCNVAHPASSTKVDKKIVPRDCGCKPCICTVPEEDDVFIFPPKPKDVLTITLTPKVTCVVVDISKDDPEVQFSWFVDDVEVHTAQTQPREEQFNSTFRSVSELPIMHQDWLNGKEFKCRVNSAAFPAPIEKTISKTKGRPKAPQVYTIPPPKEQMAKDKVSLTCMITDFFPEDITVEWQWNGQPAENYKNTQPIMDTDGSYFVYSKLNVQKSNWEAGNTFTCSVLHEGLHNHHTEKSLSHSPGK
light: not shown
notes: copies: 2 + 2
B3: H237-MB600/MRAL-k0 (antibody, mouse IgG1, kappa)
heavy: QVQLQESGPGLVKPSETLSLTCAVSGHSISHDHAWSWVRQPPGEGLEWIGFISYSGITNYNPSLQGRVTISRDNSKNTLYLQMNSLRAEDTAVYYCARSLARTTAMDYWGEGTLVTVSSAKTTPPSVYPLAPGSAAQTNSMVTLGCLVKGYFPEPVTVTWNSGSLSSGVHTFPAVLQSDLYTLSSSVTVPSSTWPSETVTCNVAHPASSTKVDKKIVPRDCGCKPCICEVPEESWVFIFPPKPKDVLTITLTPKVTCVVVDISKDDPEVQFSWFVDDVEVHTAQTQPREEQFNSTFRSVSELPIMHQDWLNGKEFKCRVNSAAFPAPIEKTISKTKGRPKAPQVYTIPPPKEQMAKDKVSLTCMITDFFPEDITVEWQWNGQPAENYKNTQPIMDTDGSYFVYSKLNVQKSNWEAGNTFTCSVLHEGLHNHHTEKSLSHSPGK
light: not shown
notes: copies: 2 + 2
B4: H237-MB657/MRAL-k0 (antibody, mouse IgG1, kappa)
heavy: QVQLQESGPGLVKPSETLSLTCAVSGHSISHDHAWSWVRQPPGEGLEWIGFISYSGITNYNPSLQGRVTISRDNSKNTLYLQMNSLRAEDTAVYYCARSLARTTAMDYWGEGTLVTVSSAKTTPPSVYPLAPGSAAQTNSMVTLGCLVKGYFPEPVTVTWNSGSLSSGVHTFPAVLQSDLYTLSSSVTVPSSTWPSETVTCNVAHPASSTKVDKKIVPRDCGCKPCICEPNEVEFVFIFPPKPKDVLTITLTPKVTCVVVDISKDDPEVQFSWFVDDVEVHTAQTQPREEQFNSTFRSVSELPIMHQDWLNGKEFKCRVNSAAFPAPIEKTISKTKGRPKAPQVYTIPPPKEQMAKDKVSLTCMITDFFPEDITVEWQWNGQPAENYKNTQPIMDTDGSYFVYSKLNVQKSNWEAGNTFTCSVLHEGLHNHHTEKSLSHSPGK
light: not shown
notes: copies: 2 + 2
B5: H237-MB601/MRAL-k0 (antibody, mouse IgG1, kappa)
heavy: QVQLQESGPGLVKPSETLSLTCAVSGHSISHDHAWSWVRQPPGEGLEWIGFISYSGITNYNPSLQGRVTISRDNSKNTLYLQMNSLRAEDTAVYYCARSLARTTAMDYWGEGTLVTVSSAKTTPPSVYPLAPGSAAQTNSMVTLGCLVKGYFPEPVTVTWNSGSLSSGVHTFPAVLQSDLYTLSSSVTVPSSTWPSETVTCNVAHPASSTKVDKKIVPRDCGCKPCICEVPEESSVDIFPPKPKDVLTITLTPKVTCVVVDISKDDPEVQFSWFVDDVEVHTAQTQPREEQFNSTFRSVSELPIMHQDWLNGKEFKCRVNSAAFPAPIEKTISKTKGRPKAPQVYTIPPPKEQMAKDKVSLTCMITDFFPEDITVEWQWNGQPAENYKNTQPIMDTDGSYFVYSKLNVQKSNWEAGNTFTCSVLHEGLHNHHTEKSLSHSPGK
light: not shown
notes: copies: 2 + 2
B6: H237-MB623/MRAL-k0 (antibody, mouse IgG1, kappa)
heavy: QVQLQESGPGLVKPSETLSLTCAVSGHSISHDHAWSWVRQPPGEGLEWIGFISYSGITNYNPSLQGRVTISRDNSKNTLYLQMNSLRAEDTAVYYCARSLARTTAMDYWGEGTLVTVSSAKTTPPSVYPLAPGSAAQTNSMVTLGCLVKGYFPEPVTVTWNSGSLSSGVHTFPAVLQSDLYTLSSSVTVPSSTWPSETVTCNVAHPASSTKVDKKIVPRDCGCKPCICEAYEVELVFIFPPKPKDVLTITLTPKVTCVVVDISKDDPEVQFSWFVDDVEVHTAQTQPREEQFNSTFRSVSELPIMHQDWLNGKEFKCRVNSAAFPAPIEKTISKTKGRPKAPQVYTIPPPKEQMAKDKVSLTCMITDFFPEDITVEWQWNGQPAENYKNTQPIMDTDGSYFVYSKLNVQKSNWEAGNTFTCSVLHEGLHNHHTEKSLSHSPGK
light: not shown
notes: copies: 2 + 2
B7: H237-MB599/MRAL-k0 (antibody, mouse IgG1, kappa)
heavy: QVQLQESGPGLVKPSETLSLTCAVSGHSISHDHAWSWVRQPPGEGLEWIGFISYSGITNYNPSLQGRVTISRDNSKNTLYLQMNSLRAEDTAVYYCARSLARTTAMDYWGEGTLVTVSSAKTTPPSVYPLAPGSAAQTNSMVTLGCLVKGYFPEPVTVTWNSGSLSSGVHTFPAVLQSDLYTLSSSVTVPSSTWPSETVTCNVAHPASSTKVDKKIVPRDCGCKPCICEVPEESFVFIFPPKPKDVLTITLTPKVTCVVVDISKDDPEVQFSWFVDDVEVHTAQTQPREEQFNSTFRSVSELPIMHQDWLNGKEFKCRVNSAAFPAPIEKTISKTKGRPKAPQVYTIPPPKEQMAKDKVSLTCMITDFFPEDITVEWQWNGQPAENYKNTQPIMDTDGSYFVYSKLNVQKSNWEAGNTFTCSVLHEGLHNHHTEKSLSHSPGK
light: not shown
notes: copies: 2 + 2
B8: H237-MB617/MRAL-k0 (antibody, mouse IgG1, kappa)
heavy: QVQLQESGPGLVKPSETLSLTCAVSGHSISHDHAWSWVRQPPGEGLEWIGFISYSGITNYNPSLQGRVTISRDNSKNTLYLQMNSLRAEDTAVYYCARSLARTTAMDYWGEGTLVTVSSAKTTPPSVYPLAPGSAAQTNSMVTLGCLVKGYFPEPVTVTWNSGSLSSGVHTFPAVLQSDLYTLSSSVTVPSSTWPSETVTCNVAHPASSTKVDKKIVPRDCGCKPCICTVPEESDVDIFPPKPKDVLTITLTPKVTCVVVDISKDDPEVQFSWFVDDVEVHTAQTQPREEQFNSTFRSVSELPIMHQDWLNGKEFKCRVNSAAFPAPIEKTISKTKGRPKAPQVYTIPPPKEQMAKDKVSLTCMITDFFPEDITVEWQWNGQPAENYKNTQPIMDTDGSYFVYSKLNVQKSNWEAGNTFTCSVLHEGLHNHHTEKSLSHSPGK
light: not shown
notes: copies: 2 + 2
B9: H237-MB611/MRAL-k0 (antibody, mouse IgG1, kappa)
heavy: QVQLQESGPGLVKPSETLSLTCAVSGHSISHDHAWSWVRQPPGEGLEWIGFISYSGITNYNPSLQGRVTISRDNSKNTLYLQMNSLRAEDTAVYYCARSLARTTAMDYWGEGTLVTVSSAKTTPPSVYPLAPGSAAQTNSMVTLGCLVKGYFPEPVTVTWNSGSLSSGVHTFPAVLQSDLYTLSSSVTVPSSTWPSETVTCNVAHPASSTKVDKKIVPRDCGCKPCICTVPEEDEVFIFPPKPKDVLTITLTPKVTCVVVDISKDDPEVQFSWFVDDVEVHTAQTQPREEQFNSTFRSVSELPIMHQDWLNGKEFKCRVNSAAFPAPIEKTISKTKGRPKAPQVYTIPPPKEQMAKDKVSLTCMITDFFPEDITVEWQWNGQPAENYKNTQPIMDTDGSYFVYSKLNVQKSNWEAGNTFTCSVLHEGLHNHHTEKSLSHSPGK
light: not shown
notes: copies: 2 + 2

Columns and labels:
[1] = target: T1, mouse FcγRII; experiment: SPR (Biacore), antibody captured on Protein L
Procedure: (§1) Each altered antibody was analyzed for its interaction with each Fcγ receptor prepared above using Biacore T100 (GE Healthcare Japan Corp.), Biacore T200 (GE Healthcare Japan Corp.), Biacore A100, or Biacore 4000. The running buffer used was HBS-EP+ (GE Healthcare Japan Corp.). The assay temperature was set to 25° C. The sensor chips used were chips prepared by immobilizing Protein L (ACTIGEN or BioVision) onto Series S Sensor Chip CM5 (GE Healthcare Japan Corp.) or Series S Sensor Chip CM4 (GE Healthcare Japan Corp.) by the amine coupling method.
(§2) In order to calculate the KD value of each altered antibody for FcγR, kinetic analysis was conducted according to the following method: first, the antibody of interest was captured onto any of these chips and allowed to interact with mFcγR diluted with a running buffer. For the obtained sensorgram, the assay results were globally fit into the 1:1 Langmuir binding model using Biacore Evaluation Software to calculate an association rate constant ka (L/mol/s) and a dissociation rate constant kd (1/s). From these values, the dissociation constant KD (mol/L) was calculated.

[2] = target: T2, mouse FcγRIII; experiment: SPR (Biacore), antibody captured on Protein L
Procedure: as §1, §2

[3] = target: T1, mouse FcγRII; experiment: SPR (Biacore), KD of H237-mIgG1/MRAL-k0 (same run) / KD of variant
Procedure: as §1, §2

[4] = target: T2, mouse FcγRIII; experiment: as above
Procedure: as §1, §2

Binder	Kd [1]	Kd [2]	relative mFcγRII-binding activity (mIgG1 = 1) [3]	relative mFcγRIII-binding activity (mIgG1 = 1) [4]
B1	345 nM	5320 nM	0.94 fold	0.1 fold
B2	156 nM	2730 nM	1.63 fold	0.13 fold
B3	171 nM	1270 nM	1.24 fold	0.25 fold
B4	118 nM and 211 nM	3480 nM and 5870 nM	–	0.09 fold
B5	389 nM	3230 nM	0.55 fold	0.1 fold
B6	395 nM	3170 nM	0.59 fold	0.1 fold
B7	306 nM	3020 nM	0.7 fold	0.11 fold
B8	255 nM	2100 nM	0.84 fold	0.15 fold
B9	192 nM	3420 nM	1.11 fold	0.09 fold
